What was measured:
eIF4A1 [1] = target: T1, eIF4A1 (human, UniProt P60842 1-406); assay: fluorescence anisotropy; 2 mM AMPPNP/MgCl2; affinity comparable to AG-RNA, Kd in figure only; 20 mM HEPES/KOH pH 7.5, 100 mM KCl, 1 mM TCEP, 1% DMSO, 2 mM AMPPNP/MgCl2, 25 C, 60 min; EMSA gels 6-7% acrylamide-TB, 0.5x TB; conditions: protein: recombinant; tags: N-terminal 6xHis-SUMO, cleaved; label: FAM or 5' Dy780
eIF4A1 [2] = target: T1, eIF4A1; assay: EMSA; silvestrol; multimerisation observed; 20 mM HEPES/KOH pH 7.5, 100 mM KCl, 1 mM TCEP, 1% DMSO, 2 mM AMPPNP/MgCl2, 25 C, 60 min; EMSA gels 6-7% acrylamide-TB, 0.5x TB; conditions: protein: recombinant; tags: N-terminal 6xHis-SUMO, cleaved; label: FAM
eIF4A1 [3] = target: T1, eIF4A1; assay: EMSA; silvestrol, MgCl2, no ATP; fully bound with and without scavenger AG-RNA; 20 mM HEPES/KOH pH 7.5, 100 mM KCl, 1 mM TCEP, 1% DMSO, 2 mM AMPPNP/MgCl2, 25 C, 60 min; EMSA gels 6-7% acrylamide-TB, 0.5x TB; conditions: protein: recombinant; tags: N-terminal 6xHis-SUMO, cleaved; label: EMSA: 5' Dy780 / 5' Dy680; FRET: 5' Cy3 / 5' Cy5; 5' overhang 20 nt

T1 sequence (P60842 whole entry): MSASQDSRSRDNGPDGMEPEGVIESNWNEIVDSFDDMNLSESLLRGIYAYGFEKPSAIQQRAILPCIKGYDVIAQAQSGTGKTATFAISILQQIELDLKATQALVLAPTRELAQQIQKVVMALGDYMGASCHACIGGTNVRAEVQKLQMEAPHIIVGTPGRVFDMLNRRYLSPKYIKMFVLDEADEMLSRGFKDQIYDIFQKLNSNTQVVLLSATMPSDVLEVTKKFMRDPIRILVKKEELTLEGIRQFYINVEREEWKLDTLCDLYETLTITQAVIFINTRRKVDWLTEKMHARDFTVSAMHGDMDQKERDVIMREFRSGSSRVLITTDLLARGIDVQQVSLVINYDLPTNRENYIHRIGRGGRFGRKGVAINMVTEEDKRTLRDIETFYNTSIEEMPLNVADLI

B1: CAA-RNA (20 nt) (ssRNA)
RNA: CAACAACAACAACAACAACA
- binding result (eIF4A1 [1]): binds

B2: 10 nt AG-RNA (ssRNA)
RNA: AGAGAGAGAG
- binding result (eIF4A1 [2]): binds

B3: AG-overhang 24 bp substrate (EMSA/FRET loading + reporter) (dsRNA)
RNA 1: AGAGAGAGAGAGAGAGAGAGGAAAAAAUUAAAAAAUUAAAAAAC
RNA 2: GUUUUUUAAUUUUUUAAUUUUUUC
- binding result (eIF4A1 [3]): binds

From article PMC9976904, “eIF4A1-dependent mRNAs employ purine-rich 5’UTR sequences to activate localised eIF4A1-unwinding through eIF4A1-multimerisation to facilitate translation”
